From publication PMC5479578 (Biochemistry, 2017)
Square brackets hold non-standard residues; d marks the D form. Ends that are not written are not given here. Peptide text beside a SMILES is read from it. * marks the point of attachment. FITC = O=C1OC2(c3ccc(O)cc3Oc3cc(O)ccc32)c2ccc(NC(=S)*)cc21; Biotin = O=C1N[C@H]2[C@H](CS[C@H]2CCCCC(=O)*)N1; pT = C[C@@H](OP(=O)(O)O)[C@H](N)C(=O)O

Columns and labels:
PDZ1 of NHERF1 = molecular target: T1, PDZ1 of NHERF1 (Homo sapiens, UniProt O14745); test: Isothermal titration calorimetry, NHERF1 PDZ1; format: binding
T1 sequence (O14745 1-140): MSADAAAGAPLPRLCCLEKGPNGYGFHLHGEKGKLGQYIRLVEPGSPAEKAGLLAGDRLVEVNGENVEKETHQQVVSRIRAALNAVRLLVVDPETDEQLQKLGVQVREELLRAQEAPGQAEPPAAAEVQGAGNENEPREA

PDZ2 of NHERF1 [1] = molecular target: T2, PDZ2 of NHERF1 (Homo sapiens, UniProt O14745); test: Isothermal titration calorimetry, NHERF1 PDZ2; format: binding
T2 sequence (O14745 133-300): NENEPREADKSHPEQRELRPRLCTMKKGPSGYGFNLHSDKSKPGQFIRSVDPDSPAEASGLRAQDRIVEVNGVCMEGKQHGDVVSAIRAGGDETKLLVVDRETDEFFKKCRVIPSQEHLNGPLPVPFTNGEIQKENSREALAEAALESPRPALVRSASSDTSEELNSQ

PTHR = test: Mass spectrometry of PTHR phosphorylation in cell lysates; format: cell-based; settings: PTH(1–34) treatment; MS-MS of cell lysates
[2] = molecular target: NHERF1 PDZ1 domain (1-140) (human) (UniProt O14745); test: ITC
[3] = molecular target: NHERF1 PDZ2 domain (133-300) (human) (UniProt O14745); test: ITC
PDZ2 of NHERF1 [4] = molecular target: T2, PDZ2 of NHERF1; test: Surface plasmon resonance, NHERF1 PDZ2; format: binding
[5] = molecular target: T3, NHERF1 PDZ1 domain (1-140) (human, UniProt O14745 1-140); test: ITC
T3 sequence (looked up): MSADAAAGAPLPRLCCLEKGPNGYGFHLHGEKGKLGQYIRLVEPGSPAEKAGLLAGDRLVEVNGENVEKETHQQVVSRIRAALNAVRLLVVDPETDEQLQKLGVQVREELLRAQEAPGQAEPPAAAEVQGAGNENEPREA

[6] = molecular target: T4, NHERF1 PDZ2 domain (133-300) (human, UniProt O14745 133-300); test: ITC
T4 sequence (looked up): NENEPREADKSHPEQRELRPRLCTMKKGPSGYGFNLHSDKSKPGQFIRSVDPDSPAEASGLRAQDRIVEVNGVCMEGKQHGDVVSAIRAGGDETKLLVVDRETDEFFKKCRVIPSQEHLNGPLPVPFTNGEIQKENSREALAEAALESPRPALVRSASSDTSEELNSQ

[7] = molecular target: T3, NHERF1 PDZ1 domain (1-140); test: fluorescence polarisation
[8] = molecular target: T4, NHERF1 PDZ2 domain (133-300); test: fluorescence polarisation
[9] = molecular target: T3, NHERF1 PDZ1 domain (1-140); test: fluorescence polarisation; remark: listed apart in the source
[10] = molecular target: T4, NHERF1 PDZ2 domain (133-300); test: fluorescence polarisation; remark: listed apart in the source
[11] = molecular target: T3, NHERF1 PDZ1 domain (1-140); test: fluorescence polarisation; remark: listed apart in the source
[12] = molecular target: T4, NHERF1 PDZ2 domain (133-300); test: fluorescence polarisation; remark: listed apart in the source
[13] = molecular target: T3, NHERF1 PDZ1 domain (1-140); test: fluorescence polarisation; remark: listed apart in the source
[14] = molecular target: T4, NHERF1 PDZ2 domain (133-300); test: fluorescence polarisation; remark: listed apart in the source
[15] = molecular target: T3, NHERF1 PDZ1 domain (1-140); test: fluorescence polarisation; remark: listed apart in the source
[16] = molecular target: T3, NHERF1 PDZ1 domain (1-140); test: SPR
[17] = molecular target: T4, NHERF1 PDZ2 domain (133-300); test: SPR
[18] = molecular target: T3, NHERF1 PDZ1 domain (1-140); test: SPR; remark: listed apart in the source
[19] = molecular target: T4, NHERF1 PDZ2 domain (133-300); test: SPR; remark: listed apart in the source
[20] = molecular target: T4, NHERF1 PDZ2 domain (133-300); test: fluorescence polarisation; remark: listed apart in the source

Molecule: QEAWETVM [QEAWETVM]
- Kd (PDZ1 of NHERF1): 25.5 ± 1.1 µM
- Kd (PDZ2 of NHERF1 [1]): 26.8 ± 2.1 µM

Molecule: human Nle^8,18Tyr^34-PTH(1–34)
- phosphorylation of PTHR Thr591 (PTHR): promoted phosphorylation of Thr591

Molecule: QEAWATVM
- n (stoichiometry) (PDZ1 of NHERF1; ITC, PDZ1, 25 °C, mean ± S.E.M. (n = 3)): 1.12 ± 0.03
- n (stoichiometry) (PDZ2 of NHERF1 [1]; ITC, PDZ2, 25 °C, mean ± S.E.M. (n = 3)): 1.04 ± 0.02

Molecule: PTHRct-8 peptide with Ala at Glu-5
- Kd [2]: 25.5 µM
- dH [2]: -7.6 kcal/mol
- stoichiometry N [2]: 1.21
- Kd [3]: 26.8 µM
- dH [3]: -10.3 kcal/mol

Molecule: PTHRct-8 peptide with Ala at Glu-6 and Glu-5
- Kd [2]: 24.4 µM
- dH [2]: -3.8 kcal/mol
- stoichiometry N [2]: 1.26
- Kd [3]: 57.8 µM
- dH [3]: -7.2 kcal/mol
- stoichiometry N [3]: 1.26

Molecule: PTHRct-8 peptide with Ala at Glu-6
- Kd [2]: 13.1 µM
- dH [2]: -4.3 kcal/mol
- stoichiometry N [2]: 1.1
- Kd [3]: 18.1 µM
- stoichiometry N [3]: 1.12

Molecule: CSCC[C@H](NC(=O)[C@@H](NC(=O)[C@@H](NC(=O)[C@H](CCC(=O)O)NC(=O)[C@H](Cc1c[nH]c2ccccc12)NC(=O)[C@H](CCC(=O)O)NC(=O)[C@H](CCC(=O)O)NC(=O)[C@H](CCC(N)=O)NC(=O)[C@H](CC(C)C)NC(=O)[C@H](CC(C)C)NC(=O)[C@H](C)NC(=O)[C@@H]1CCCN1C(=O)[C@@H]1CCCN1C(=O)[C@H](CCCNC(=N)N)NC(=O)[C@H](CCC(=O)O)NC(=O)[C@@H]1CCCN1C(=O)CNC(=O)[C@H](CO)NC(=O)[C@H](C)NC(=O)[C@H](CCC(=O)O)NC(=O)[C@H](CCC(=O)O)NC(=O)[C@H](CC(=O)O)NC(=O)CCCC[C@@H]1SC[C@@H]2NC(=O)N[C@@H]21)[C@@H](C)O)C(C)C)C(=O)O [b-PTHRct-22] (Biotin-DEEASGPERPPALLQEEWETVM-OH)
- Kd (PDZ2 of NHERF1 [4]): 11.5 ± 0.4 µM

Molecule: QAAWETVM [QAAWETVM]
- Kd (PDZ1 of NHERF1): 24.4 ± 0.6 µM

Molecule: PTHRct-8 peptide with Ala at Glu-3
- Kd [2]: 34.2 µM
- stoichiometry N [2]: 1.15
- Kd [3]: 35.5 µM
- dH [3]: -8.6 kcal/mol
- stoichiometry N [3]: 0.88

Molecule: QAEWETVM [QAEWETVM]
- Kd (PDZ1 of NHERF1): 13.1 ± 1.7 µM
- Kd (PDZ2 of NHERF1 [1]): 18.1 ± 2.4 µM

Molecule: QEEWATVM [QEEWATVM]
- Kd (PDZ1 of NHERF1): 34.2 ± 0.5 µM
- Kd (PDZ2 of NHERF1 [1]): 35.5 ± 2 µM

Molecule: QEEWETVM [wild-type PTHRct-8 peptide]
- Kd [5]: 11.7 µM
- dH [5]: -10.6 kcal/mol
- stoichiometry N [5]: 1.11
- Kd [6]: 9.7 µM
- dH [6]: -21.6 kcal/mol
- stoichiometry N [6]: 1.13

Molecule: {FITC}-LQEEWETVM [FITC-labeled carboxy-terminal PTHR 9-residue peptide]
- Kd [7]: 0.4 µM
- Kd [8]: 0.4 µM
- Kd [9]: 1 µM
- Kd [10]: 0.6 µM
- Kd [11]: 4.7 µM
- Kd [12]: 2.4 µM
- Kd [13]: 1 µM
- Kd [14]: 0.6 µM

Molecule: LQEEWETVM [unlabeled carboxy-terminal PTHR 9-residue peptide]
- Ki [15]: 1.4 ± 0.9 µM

Molecule: LQEEWECVM [Thr-2/Cys-2 mutant of PTHRct-9]
- Ki [15]: 11 µM

Molecule: LQEEWE[pT]VM [phosphorylated Thr-2-PTHRct-9]
- Ki [15]: 121 µM

Molecule: Biotin-DEEASGPERPPALLQEEWETVM [biotinylated carboxy-terminal 22-amino acid PTHR peptide]
- koff [16]: 0.606 s⁻¹
- kon [16]: 14700 M⁻¹ s⁻¹
- koff [17]: 0.393 s⁻¹
- kon [17]: 57000 M⁻¹ s⁻¹
- Kd [18]: 16 µM
- Kd [19]: 11.5 µM
- Ki [20]: 7 µM
